For this test, the target named is Ang II type 1 receptor on rat vascular smooth muscle cells (rat) (UniProt P25095). The experiment in a line: cell-based or functional assay.
UniProt P25095, sequence (P25095 whole entry): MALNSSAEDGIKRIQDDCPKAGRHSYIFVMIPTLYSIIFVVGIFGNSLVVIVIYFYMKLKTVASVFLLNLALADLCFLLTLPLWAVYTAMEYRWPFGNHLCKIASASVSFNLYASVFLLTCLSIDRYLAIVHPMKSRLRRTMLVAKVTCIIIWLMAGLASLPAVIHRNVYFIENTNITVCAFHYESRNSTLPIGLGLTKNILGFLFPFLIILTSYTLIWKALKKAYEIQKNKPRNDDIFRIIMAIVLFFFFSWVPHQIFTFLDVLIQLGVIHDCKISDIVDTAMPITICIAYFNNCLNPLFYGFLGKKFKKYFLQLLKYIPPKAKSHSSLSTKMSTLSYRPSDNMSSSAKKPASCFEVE

In turn, “[Sar1, Gly8]-Ang II acetate hydrate (peptide)” gave an MFG-E8 protein level in old VSMC (Western blot) of 40%.

The values above are taken from patent publication US20120004133A1.
